Data reported in the supplement of paper PMC9112550, “Optimization of the antimicrobial peptide Bac7 by deep mutational scanning” (BMC Biology, 2022).

Test system: Escherichia coli TOP10
Assay: shrunken log2 fold change of peptide-encoding DNA abundance (4.5 h post-induction vs induction); higher = less antimicrobial activity (less host growth inhibition)
Conditions: time post-induction: 4.5 h; library: site-saturation at positions 5, 18, 19, 20
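Further: peptides expressed intracellularly from a pBAD plasmid library in pooled LB shake-flask culture, induced with 0.3% L-arabinose, DNA abundance read by NGS, three biological replicates, DESeq2 with apeglm shrinkage.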

| Sequence | shrunken log2 fold change |
| --- | --- |
| RRIRARPPRLPRPRPRPQNLPRP | -0.564 |
| RRIRSRPPRLPRPRPRPRTTPRP | 0.318 |
| RRIRWRPPRLPRPRPRPWWSPRP | 0.173 |
| RRIRYRPPRLPRPRPRPWLCPRP | -0.0909 |
| RRIRQRPPRLPRPRPRPCMSPRP | -0.234 |
| RRIRTRPPRLPRPRPRPLGKPRP | 0.0663 |
| RRIRWRPPRLPRPRPRPARCPRP | 0.209 |
| RRIRFRPPRLPRPRPRPFTYPRP | -0.208 |
| RRIRTRPPRLPRPRPRPEKTPRP | 0.051 |
| RRIRRRPPRLPRPRPRPTAMPRP | 0.78 |
| RRIRMRPPRLPRPRPRPQIIPRP | 0.022 |
| RRIRLRPPRLPRPRPRPATEPRP | 0.149 |
| RRIRNRPPRLPRPRPRPPQVPRP | 0.0214 |
| RRIRVRPPRLPRPRPRPARKPRP | 0.342 |
| RRIRDRPPRLPRPRPRPMDTPRP | -0.0196 |
| RRIRMRPPRLPRPRPRPPIIPRP | -0.306 |
| RRIRNRPPRLPRPRPRPIYCPRP | -0.858 |
| RRIRGRPPRLPRPRPRPVTIPRP | 0.0068 |
| RRIRCRPPRLPRPRPRPVDDPRP | 0.157 |
| RRIRCRPPRLPRPRPRPGIGPRP | 0.295 |
| RRIRSRPPRLPRPRPRPLCDPRP | 0.155 |
| RRIRARPPRLPRPRPRPQAQPRP | 0.664 |

| Sequence | shrunken log2 fold change |
| --- | --- |
| RRIRVRPPRLPRPRPRPVMKPRP | -0.127 |
| RRIRPRPPRLPRPRPRPNRLPRP | -0.0308 |
| RRIRERPPRLPRPRPRPNTHPRP | -0.704 |
| RRIRMRPPRLPRPRPRPWWIPRP | -0.442 |
| RRIRGRPPRLPRPRPRPRRGPRP | 0.813 |
| RRIRKRPPRLPRPRPRPMPIPRP | 0.0778 |
| RRIRIRPPRLPRPRPRPYWTPRP | -0.18 |
| RRIRVRPPRLPRPRPRPYICPRP | -0.468 |
| RRIRFRPPRLPRPRPRPKWSPRP | 0.321 |
| RRIRRRPPRLPRPRPRPHRMPRP | -0.203 |
| RRIRPRPPRLPRPRPRPSSIPRP | -0.824 |
| RRIRWRPPRLPRPRPRPGEQPRP | 0.0722 |
| RRIRKRPPRLPRPRPRPRHGPRP | -0.0248 |
| RRIRKRPPRLPRPRPRPKDRPRP | 0.088 |
| RRIRHRPPRLPRPRPRPWDRPRP | -0.0232 |
| RRIRWRPPRLPRPRPRPPCYPRP | -0.436 |
| RRIRRRPPRLPRPRPRPRYVPRP | 0.147 |
| RRIRKRPPRLPRPRPRPMGRPRP | -0.0264 |
| RRIRWRPPRLPRPRPRPTSVPRP | 0.233 |
| RRIRMRPPRLPRPRPRPDPKPRP | -0.000946 |
| RRIRDRPPRLPRPRPRPMMWPRP | 0.156 |
| RRIRLRPPRLPRPRPRPDKCPRP | -0.0114 |

| Sequence | shrunken log2 fold change |
| --- | --- |
| RRIRQRPPRLPRPRPRPDHQPRP | -0.126 |
| RRIRTRPPRLPRPRPRPHFNPRP | -0.556 |
| RRIRIRPPRLPRPRPRPEYYPRP | -0.198 |
| RRIRQRPPRLPRPRPRPSWNPRP | -0.238 |
| RRIRFRPPRLPRPRPRPSPDPRP | -0.0261 |
| RRIRMRPPRLPRPRPRPPGLPRP | 0.702 |
| RRIRMRPPRLPRPRPRPFGKPRP | 0.129 |
| RRIRERPPRLPRPRPRPDRYPRP | -0.00433 |
| RRIRARPPRLPRPRPRPNQQPRP | 0.284 |
| RRIRLRPPRLPRPRPRPEPMPRP | -0.0888 |
| RRIRLRPPRLPRPRPRPAPLPRP | 0.273 |
| RRIRPRPPRLPRPRPRPEHRPRP | 0.0967 |
| RRIRSRPPRLPRPRPRPRDSPRP | -0.158 |
| RRIRRRPPRLPRPRPRPITEPRP | 0.0622 |
| RRIRMRPPRLPRPRPRPLWFPRP | -0.147 |
| RRIRPRPPRLPRPRPRPCMHPRP | -0.297 |
| RRIRYRPPRLPRPRPRPVVVPRP | 0.00571 |
| RRIRPRPPRLPRPRPRPSNRPRP | -0.783 |
| RRIRNRPPRLPRPRPRPSDTPRP | -0.00711 |
| RRIRHRPPRLPRPRPRPSESPRP | -0.232 |
| RRIRLRPPRLPRPRPRPFMGPRP | -0.141 |
| RRIRMRPPRLPRPRPRPVQNPRP | 0.0136 |

| Sequence | shrunken log2 fold change |
| --- | --- |
| RRIRGRPPRLPRPRPRPICHPRP | 0.378 |
| RRIRPRPPRLPRPRPRPDNTPRP | -0.373 |
| RRIRVRPPRLPRPRPRPASSPRP | -0.122 |
| RRIRYRPPRLPRPRPRPIKRPRP | -0.767 |
| RRIRLRPPRLPRPRPRPNSFPRP | -0.191 |
| RRIRRRPPRLPRPRPRPCFPPRP | 0.592 |
| RRIRARPPRLPRPRPRPFKTPRP | 0.0511 |
| RRIRQRPPRLPRPRPRPQWWPRP | 0.0549 |
| RRIRMRPPRLPRPRPRPPFRPRP | 0.693 |
| RRIRHRPPRLPRPRPRPFEEPRP | 0.0124 |
| RRIRYRPPRLPRPRPRPCSKPRP | -0.012 |
| RRIRDRPPRLPRPRPRPYTQPRP | -0.165 |
| RRIRVRPPRLPRPRPRPMNNPRP | -0.694 |
| RRIRWRPPRLPRPRPRPQEMPRP | -0.0845 |
| RRIRRRPPRLPRPRPRPNYSPRP | -0.0871 |
| RRIRGRPPRLPRPRPRPPNVPRP | 0.431 |
| RRIRSRPPRLPRPRPRPYKAPRP | -0.0488 |
| RRIRVRPPRLPRPRPRPYVNPRP | 0.0651 |
| RRIRFRPPRLPRPRPRPLTCPRP | -0.182 |
| RRIRQRPPRLPRPRPRPRRYPRP | 0.112 |
| RRIRARPPRLPRPRPRPGCAPRP | 0.947 |
| RRIRFRPPRLPRPRPRPEWSPRP | 0.219 |

| Sequence | shrunken log2 fold change |
| --- | --- |
| RRIRPRPPRLPRPRPRPMMDPRP | 0.0321 |
| RRIRDRPPRLPRPRPRPQSAPRP | 0.138 |
| RRIRVRPPRLPRPRPRPPSKPRP | 1.13 |
| RRIRNRPPRLPRPRPRPWDMPRP | -0.304 |
| RRIRWRPPRLPRPRPRPNKDPRP | -0.393 |
| RRIRWRPPRLPRPRPRPFWFPRP | -0.119 |
| RRIRNRPPRLPRPRPRPVRKPRP | 0.128 |
| RRIRRRPPRLPRPRPRPPSRPRP | 0.446 |
| RRIRVRPPRLPRPRPRPPPQPRP | 0.856 |
| RRIRDRPPRLPRPRPRPRWDPRP | 0.196 |
| RRIRFRPPRLPRPRPRPPVFPRP | 0.138 |
| RRIRMRPPRLPRPRPRPSMCPRP | 0.0724 |
| RRIRPRPPRLPRPRPRPAGPPRP | 0.314 |
| RRIRHRPPRLPRPRPRPRTHPRP | -0.137 |
| RRIRLRPPRLPRPRPRPMVPPRP | 0.096 |
| RRIRMRPPRLPRPRPRPGHGPRP | 0.32 |
| RRIRVRPPRLPRPRPRPMKSPRP | 3.02 |
| RRIRMRPPRLPRPRPRPGYSPRP | -0.185 |
| RRIRFRPPRLPRPRPRPVGIPRP | -0.135 |
| RRIRSRPPRLPRPRPRPGIEPRP | 0.158 |
| RRIRTRPPRLPRPRPRPVETPRP | 0.306 |
